± gives the half width of the 95% confidence interval.
Legend:
[1] = folding stability dG unfold (combined trypsin and chymotrypsin); higher = more stable
Method in brief: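 Mini-proteins designed to be under 80 residues and free of cysteine were carried in a PA-tagged cDNA display construct and digested with trypsin and with chymotrypsin. Each protease was applied at 11 threefold-diluted concentrations, alongside a no-protease condition, before sequencing. K50 came from Bayesian fitting of the sequencing counts, and unfolding free energy was obtained by comparing it with a sequence-predicted unfolded-state K50 and a shared folded-state K50, for each protease separately or for both together. Designs were retained only if their AlphaFold2 dimer inter-PAE exceeded 15.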

[2] = folding stability dG unfold from trypsin proteolysis; higher = more stable
Method: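 Folding stability of de novo designed mini-proteins (<80 aa, no Cys; designed by TrROS, TrMRF, ProteinMPNN and the joint model) was measured by cDNA display proteolysis with trypsin and chymotrypsin. Each protease was used at 11 concentrations in a threefold dilution series plus a no-protease condition. K50 was inferred by Bayesian fitting of sequencing counts, and dG unfold was derived against a sequence-predicted unfolded-state K50 (Tsuboyama et al. method). Sequences shown include variable-length N-terminal GS-type padding (SAGGSAGG...) inside a display construct carrying a PA tag. Rows were kept only if the AF2 dimer inter-PAE was >15, to exclude likely homo-oligomers.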

SAGGSAGGSAGGDAILIEVESPEDAVEAARELAEKEFGIDPENFPINVVVDEPDGKALIASAGGSAGGSAGG [r7_387_TrMRF]
folding stability dG unfold [1]: -0.404 ± 0.25 kcal/mol
folding stability dG unfold [2]: 0.743 ± 0.019 kcal/mol

SAGGSAGGSAGGDPVTVLSIKPEPGKLTVTTNTRADGSTTTTTVSPENPPNIKPGEPLSSAGGSAGGSAGGS [r10_834_JUSTAS]
folding stability dG unfold [1]: 0.109 ± 0.18 kcal/mol
folding stability dG unfold [2]: 0.552 ± 0.04 kcal/mol

SAGGSAGGSAGGEVEVPKDASLVVTYPNGERKEVPVEDKVPVKGLPVYLLGPDGTLREIDSAGGSAGGSAGG [r7_54_TrMRF]
folding stability dG unfold [1]: < -1 kcal/mol
folding stability dG unfold [2]: 0.294 ± 0.18 kcal/mol

SAGGSAGGSAGGFVEKYPDGVIVEKDPNNDSGTVKKVTTTKDPNTNKPTSKVTVTPISKLSAGGSAGGSAGG [r7_181_JUSTAS]
folding stability dG unfold [1]: < -1 kcal/mol
folding stability dG unfold [2]: -0.844 ± 0.2 kcal/mol

SAGGSAGGSAGGGESAAPVVATTVSEEVFEEPGGTVIRRYTVTTPAATTTLSTEVLPPLLSAGGSAGGSAGG [r7_43_JUSTAS]
folding stability dG unfold [1]: < -1 kcal/mol
folding stability dG unfold [2]: -0.25 ± 0.17 kcal/mol

SAGGSAGGSAGGGMTTVTIEVPPELSEEEVRRAAAELVAAGRPVPVTVERLPEDRVVVVTSAGGSAGGSAGG [r7_283_JUSTAS]
folding stability dG unfold [1]: -0.0348 ± 0.082 kcal/mol
folding stability dG unfold [2]: 0.68 ± 0.021 kcal/mol

SAGGSAGGSAGGGPSVAPFEVTELLSVSYVPGPRRFVAVVRLPDPERLVVVPVEDLPPGQSAGGSAGGSAGG [r7_304_TrMRF]
folding stability dG unfold [1]: < -1 kcal/mol
folding stability dG unfold [2]: -0.941 ± 0.41 kcal/mol

SAGGSAGGSAGGHIVIPNKRWYIQFPNGKPIGEHRFDTAEDIAKELPPNMRIVPPGDPISAGGSAGGSAGGS [r10_310_TrROS]
folding stability dG unfold [1]: < -1 kcal/mol
folding stability dG unfold [2]: 0.281 ± 0.32 kcal/mol

SAGGSAGGSAGGHPVRVRITWPDGQQRTIPIPVDPENGQVTLEEIAKTISPEHGWKIEVFSAGGSAGGSAGG [r7_492_TrROS]
folding stability dG unfold [1]: -0.638 ± 0.51 kcal/mol
folding stability dG unfold [2]: -0.107 ± 0.2 kcal/mol

SAGGSAGGSAGGITPEEIEKIREAPLPNGAPIKDVFVEGDYAVVLFETEPDLYLIVIPNKSAGGSAGGSAGG [r7_995_TrMRF]
folding stability dG unfold [1]: -0.907 ± 0.57 kcal/mol
folding stability dG unfold [2]: -0.121 ± 0.12 kcal/mol

SAGGSAGGSAGGKITIVVSASSPEEAKRFVGELKALGPADIKVIVVPAPKPLPADDPRAKSAGGSAGGSAGG [r7_261_TrMRF]
folding stability dG unfold [1]: < -1 kcal/mol
folding stability dG unfold [2]: -0.177 ± 0.21 kcal/mol

SAGGSAGGSAGGKKKVKVGNKEVEIVKEEEKEGKLIIKDKKTGKKIEISKEDLKKKKIKLSAGGSAGGSAGG [r7_391_TrROS_Hall]
folding stability dG unfold [1]: < -1 kcal/mol
folding stability dG unfold [2]: -0.42 ± 0.52 kcal/mol

SAGGSAGGSAGGKKVKIKIEIPGMSKEEIEKLAKELEKKGIKVEKIEVKPLPKVEVFEKKSAGGSAGGSAGG [r7_906_TrROS_Hall]
folding stability dG unfold [1]: < -1 kcal/mol
folding stability dG unfold [2]: -0.602 ± 0.27 kcal/mol

SAGGSAGGSAGGKRITIMFNTPEQIEELAENLGFDDIEVEPFPNEDGRPYVQVTIRLPPSAGGSAGGSAGGS [r10_494_TrROS]
folding stability dG unfold [1]: < -1 kcal/mol
folding stability dG unfold [2]: -0.703 ± 0.15 kcal/mol

SAGGSAGGSAGGKVRVETDPERGYYKVKIRNPNNGRKIKVPVPMDDPKKAKKQAKELAKSAGGSAGGSAGGS [r10_1117_TrROS]
folding stability dG unfold [1]: < -1 kcal/mol
folding stability dG unfold [2]: -0.863 ± 0.5 kcal/mol

SAGGSAGGSAGGLEVSIPGWTVTKTEPLPDDSVLSTATKKNGPKFLISISPDEVTISPESAGGSAGGSAGGS [r10_312_JUSTAS]
folding stability dG unfold [1]: < -1 kcal/mol
folding stability dG unfold [2]: -0.394 ± 0.16 kcal/mol

SAGGSAGGSAGGLSPESFYTVEVYNKDGTKLGPAQVVSTGTGKVVIPIEPDVEIILNPSSAGGSAGGSAGGS [r10_1257_JUSTAS]
folding stability dG unfold [1]: -0.136 ± 0.21 kcal/mol
folding stability dG unfold [2]: 0.346 ± 0.17 kcal/mol

SAGGSAGGSAGGMKTYSVEELRARLEEEGKEPTLEELASLPGAKVELNKETKEATIVLKPSAGGSAGGSAGG [r7_180_TrROS_Hall]
folding stability dG unfold [1]: < -1 kcal/mol
folding stability dG unfold [2]: 0.044 ± 0.16 kcal/mol

SAGGSAGGSAGGMPIRVYRDPSNPDVVYVETPESTRDVSLEEVERLPVDEIRSAAEVAAESAGGSAGGSAGG [r17_88_JUSTAS]
folding stability dG unfold [1]: -0.206 ± 0.16 kcal/mol
folding stability dG unfold [2]: 0.335 ± 0.021 kcal/mol

SAGGSAGGSAGGMTKISVNIVIYDPKNNTTKIIPITMSESEIKKVKEELVPKNMSAKILSAGGSAGGSAGGS [r10_397_JUSTAS]
folding stability dG unfold [1]: 0.191 ± 0.24 kcal/mol
folding stability dG unfold [2]: 0.847 ± 0.12 kcal/mol

SAGGSAGGSAGGMVIEIDVPPSVPASEVKEKVKAELLKKGVPKDTEIKVIVKPKNPELLSAGGSAGGSAGGS [r10_746_JUSTAS]
folding stability dG unfold [1]: < -1 kcal/mol
folding stability dG unfold [2]: -0.656 ± 0.2 kcal/mol

SAGGSAGGSAGGMYIATFKPPDGSEITVKLNPGEKVTIKLKDGTPAGVVSKKAVSPELLSAGGSAGGSAGGS [r10_422_JUSTAS]
folding stability dG unfold [1]: -0.361 ± 0.68 kcal/mol
folding stability dG unfold [2]: -0.245 ± 0.17 kcal/mol

SAGGSAGGSAGGPKFKFEDVMVQRNPEPERAYVPITYEDPGKERPIMIPIPPNQTLDEISAGGSAGGSAGGS [r10_304_TrROS]
folding stability dG unfold [1]: < -1 kcal/mol
folding stability dG unfold [2]: 0.0428 ± 0.068 kcal/mol

SAGGSAGGSAGGPVVNILVKHPNGKKETISVDVKEENIGEVATDILPKGYEVLEPSVFPGSAGGSAGGSAGG [r7_159_TrMRF]
folding stability dG unfold [1]: < -1 kcal/mol
folding stability dG unfold [2]: -0.258 ± 0.1 kcal/mol

SAGGSAGGSAGGSGGSMEVSISEAPPEYLVVTVYDPATGKTTVRKVSPSEVKSLKYEGGSAGGSAGGSAGGS [r4_494_JUSTAS]
folding stability dG unfold [1]: < -1 kcal/mol
folding stability dG unfold [2]: 0.274 ± 0.053 kcal/mol

SAGGSAGGSAGGSKKIIIPVGNKPIEITLHPDEIPEIHPETNYISIYLPKTNDVLILPVGSAGGSAGGSAGG [r7_7_TrMRF]
folding stability dG unfold [1]: < -1 kcal/mol
folding stability dG unfold [2]: -0.0749 ± 0.051 kcal/mol

SAGGSAGGSAGGSMGPVPVWITIKIPDKNGKPKRKIEIPMEGPNMTPSEIRKQAKPFIKSAGGSAGGSAGGS [r4_375_TrROS]
folding stability dG unfold [1]: < -1 kcal/mol
folding stability dG unfold [2]: -0.281 ± 0.49 kcal/mol

SAGGSAGGSAGGSMKVEKFTEIITTPDGKPELIVEKEKTTTPNGGTKTTVTKIIPAKLLSAGGSAGGSAGGS [r4_117_JUSTAS]
folding stability dG unfold [1]: < -1 kcal/mol
folding stability dG unfold [2]: -0.306 ± 0.38 kcal/mol

SAGGSAGGSAGGSMRYDIVEDPETGTVTINRYVVYPPGIEKKTEGEIVPASTVPPGDLLGSAGGSAGGSAGG [r7_455_JUSTAS]
folding stability dG unfold [1]: < -1 kcal/mol
folding stability dG unfold [2]: -0.0505 ± 0.29 kcal/mol

SAGGSAGGSAGGSPPTAKELVKELREKFPPGYPITIKHPDKTIRIMMNPGPGKFQVEIYSAGGSAGGSAGGS [r4_150_TrROS]
folding stability dG unfold [1]: < -1 kcal/mol
folding stability dG unfold [2]: -0.236 ± 0.37 kcal/mol

SAGGSAGGSAGGSQELTIKIPPGEPDVRIFFPDGGEEHEIPPGDEREIELSPDKIAVQPSAGGSAGGSAGGS [r10_46_TrROS]
folding stability dG unfold [1]: -0.148 ± 0.25 kcal/mol
folding stability dG unfold [2]: 0.763 ± 0.059 kcal/mol

SAGGSAGGSAGGSSRTIKLDGYKITVHPNSVHIYPPKNGKPVTVPMDNPEVQDLIKELISAGGSAGGSAGGS [r4_353_TrROS]
folding stability dG unfold [1]: < -1 kcal/mol
folding stability dG unfold [2]: -1.19 ± 0.31 kcal/mol

SAGGSAGGSAGGSSSLPLSTGTIPLEELEAQGGPIVEVTVLLFSGSSNRTIVMDLPPELVSAGGSAGGSAGG [r7_116_JUSTAS]
folding stability dG unfold [1]: -0.596 ± 0.31 kcal/mol
folding stability dG unfold [2]: -0.372 ± 0.29 kcal/mol

SAGGSAGGSAGGSSVPADTVVELEFKDEKGEPLLITVRVTTKDSGVDRTVLEVRPPELLSAGGSAGGSAGGS [r10_744_JUSTAS]
folding stability dG unfold [1]: -0.424 ± 0.17 kcal/mol
folding stability dG unfold [2]: 0.00915 ± 0.05 kcal/mol

SAGGSAGGSAGGSSVSSLSIKNPPSDPKGILSSVSPEGKVVLTTVNPDGSLTTTVVDVNSAGGSAGGSAGGS [r4_177_JUSTAS]
folding stability dG unfold [1]: 0.414 ± 0.2 kcal/mol
folding stability dG unfold [2]: 0.787 ± 0.065 kcal/mol

SAGGSAGGSAGGTKEFPIWFGGEPVKVTVEPDPDGQPKIEIEEPGGAEITIPPGGPLQFSAGGSAGGSAGGS [r10_989_TrROS]
folding stability dG unfold [1]: 0.343 ± 0.21 kcal/mol
folding stability dG unfold [2]: 0.934 ± 0.061 kcal/mol

SAGGSAGGSAGGTKVIPFDSVEEILEEVKKDPNKPRYIRMPGAWIKINKPGDITEIEPWPSAGGSAGGSAGG [r7_532_TrROS]
folding stability dG unfold [1]: < -1 kcal/mol
folding stability dG unfold [2]: -0.655 ± 0.46 kcal/mol

SAGGSAGGSAGGVKPGEVLPDGRLLVTWDEETNELTVYFEDTETITLKAPPPVVVSPEDLSAGGSAGGSAGG [r7_522_TrROS_Hall]
folding stability dG unfold [1]: -0.614 ± 0.46 kcal/mol
folding stability dG unfold [2]: 0.0426 ± 0.11 kcal/mol

SAGGSAGGSAGKEIHIPFPDGDTPEQAKKFAKEIADMLAQKNGKPIKVDKIEIIPPEQWPSAGGSAGGSAGG [r17_68_TrROS]
folding stability dG unfold [1]: -0.804 ± 0.34 kcal/mol
folding stability dG unfold [2]: -0.546 ± 0.11 kcal/mol

SAGGSAGGSAGKKRKIEINIIVPPEGAKQMAKMIKDELAQRNRDVDIEIKIIPVPPGQPLSAGGSAGGSAGG [r11_973_TrROS]
folding stability dG unfold [1]: < -1 kcal/mol
folding stability dG unfold [2]: 0.434 ± 0.16 kcal/mol

SAGGSAGGSAGMKPGQEVRVEVPVPNNGKKIKIPVYVPPGYTPKQAKNMAIMMAKMIREMSAGGSAGGSAGG [r11_355_TrROS]
folding stability dG unfold [1]: 0.0699 ± 0.096 kcal/mol
folding stability dG unfold [2]: 0.516 ± 0.072 kcal/mol

SAGGSAGGSAGMKPGQVVIYKIKIPLPDDGEPLFEIPIMYPVGMPEEQAKDFAKEFADKFSAGGSAGGSAGG [r11_516_TrROS]
folding stability dG unfold [1]: -0.586 ± 0.24 kcal/mol
folding stability dG unfold [2]: -0.41 ± 0.12 kcal/mol
